In US7425447 (Biogen, dated 2008):
Like-named read-outs stand apart in the source and are kept apart here.

T1: B7.1/Ig fusion protein (human, UniProt P33681 35-242, limits assumed)
T1 sequence (looked up): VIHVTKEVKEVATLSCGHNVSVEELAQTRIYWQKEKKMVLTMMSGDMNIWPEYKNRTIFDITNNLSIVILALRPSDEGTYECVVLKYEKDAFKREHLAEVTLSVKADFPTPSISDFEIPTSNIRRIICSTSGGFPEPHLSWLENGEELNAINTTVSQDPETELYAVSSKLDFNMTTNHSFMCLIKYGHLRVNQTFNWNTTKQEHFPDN

T2: B7 antigen (CD80) as used in surface plasmon resonance (UniProt P33681 35-242, limits assumed)
T2 sequence (looked up): T1 sequence (looked up)

T3: human B7.1 antigen (CD80), membrane associated (human, UniProt P33681 35-288)
T3 sequence (looked up): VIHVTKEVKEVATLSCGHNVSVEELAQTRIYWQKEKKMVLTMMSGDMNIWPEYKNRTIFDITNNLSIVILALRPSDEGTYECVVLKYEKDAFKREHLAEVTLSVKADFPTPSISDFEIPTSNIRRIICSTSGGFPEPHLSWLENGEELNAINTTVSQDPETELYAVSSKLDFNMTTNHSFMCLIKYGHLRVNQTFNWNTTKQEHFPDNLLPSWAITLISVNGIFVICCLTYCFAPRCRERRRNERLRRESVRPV

B1: PRIMATIZED 16C10 (antibody, V domains shown)
VH: QVQLQESGPGLVKPSETLSLTCAVSGGSISGGYGWGWIRQPPGKGLEWIGSFYSSSGNTYYNPSLKSQVTISTDTSKNQFSLKLNSMTAADTAVYYCVRDRLFSVVGMVYNNWFDVWGPGVLVTVSS
VL: ESALTQPPSVSGAPGQKVTISCTGSTSNIGGYDLHWYQQLPGTAPKLLIYDINKRPSGISDRFSGSKSGTAASLAITGLQTEDEADYYCQSYDSSLNAQVFGGGTRLTVLG
notes: Monkey variable domains with human constant regions, made in CHO cells; Biotinylated in some assays; also called P16C10; copies: 2 + 2
B2: monkey monoclonal antibody 7B6 (antibody, V domains shown)
VH: EVQLVESGGGLVQPGGSLRVSCAVSGFTFSDHYMYWFRQAPGKGPEWVGFIRNKPNGGTTEYAASVKDRFTISRDDSKSIAYLQMSSLKIEDTAVYYCTTSYISHCRGGVCYGGYFEFWGQGALVTVSS
VL: EVVMTQSPLSLPITPGEPASISCRSSQSLKHSNGDTFLSWYQQKPGQPPRLLIYKVSNRDSGVPDRFSGSGAGTDFTLKISAVEAEDVGVYFCGQGTRTPPTFGGGTKVEIK
notes: Cynomolgus monkey antibody from a heterohybridoma; also called hybridoma ATCC HB-12120
B3: monkey monoclonal antibody 16C10 (antibody, V domains shown)
VH: B1 VH
VL: ESALTQPPSVSGAPGQKVTISCTGSTSNIGGYDLHWYQQLPGTAPKLLIYDINKRPSGISDRFSGSKSGTAASLAITGLQTEDEADYYCQSYDSSLNAQVFGGGTRLTVL
notes: Cynomolgus monkey antibody from a heterohybridoma; also called hybridoma ATCC HB-12119
B4: monkey monoclonal antibody 7C10 (antibody, V domains shown)
VH: QVKLQQWGEGLLQPSETLSRTCVVSGGSISGYYYWTWIRQTPGRGLEWIGHIYGNGATTNYNPSLKSRVTISKDTSKNQFFLNLNSVTDADTAVYYCARGPRPDCTTICYGGWVDVWGPGDLVTVSS
VL: AYELTQPPSVSVSPGQTARITCGGDNSRNEYVHWYQQKPARAPILVIYDDSDRPSGIPERFSGSKSGNTATLTINGVEAGDEADYYCQVWDRASDHPVFGGGTRVTVL
notes: Cynomolgus monkey antibody from a heterohybridoma; The claims (CLM-00020) say that the amino acid entries are the even numbers of each pair; also called 7C10 monkey Ig; hybridoma ATCC HB-12117

Columns and labels:
[1] = target: human B7.1 antigen (CD80), membrane associated (human) (UniProt P33681); test: competition on B7.1 transfected CHO cells; competitor pair BB-1 and L307.4 (FIG. 8)
B7.1/Ig fusion protein [2] = target: T1, B7.1/Ig fusion protein; test: cell-based or functional assay
[3] = target: T2, B7 antigen (CD80) as used in surface …; test: surface plasmon resonance
B7.1/Ig fusion protein [4] = target: T1, B7.1/Ig fusion protein; test: competition of 125I-B7.1Ig binding to CD28 positive peripheral blood T lymphocytes (FIG. 10)
B7.1/Ig fusion protein [5] = target: T1, B7.1/Ig fusion protein; test: Scatchard analysis, binding to B7-Ig coated plates (apparent Kd)
[6] = target: T3, human B7.1 antigen (CD80), membrane …; test: cell-based or functional assay
B7.1/Ig fusion protein [7] = target: T1, B7.1/Ig fusion protein; test: Scatchard analysis, binding to B7-Ig coated plates (apparent Kd); remark: listed apart in the source

cross-reactivity (competition) [1] [%] | concentration for equivalent blocking of IL-2 production against CTLA-4Ig, anti-CD3/B7 beads (8:1) (B7.1/Ig fusion protein [2]) [fold] | Kd [3] [nM] | IC50 (B7.1/Ig fusion protein [4]) [mg/L] | Kd (B7.1/Ig fusion protein [5]) [nM] | inhibition of IL-2 production in mixed lymphocyte reaction [6] [µg/mL] | Kd (B7.1/Ig fusion protein [7]) [nM] | Molecule
50 | – | – | – | – | – | – | BB-1 murine anti-B7 antibody
– | ~10 | 4 | < 1 | – | – | – | B1
– | – | – | – | ~10.7 | 5 | ~10.7 | B2
– | – | – | – | ~8.1 | 0.1 | ~8.1 | B3
– | – | – | – | ~6.2 | 5 | ~6.2 | B4
